# Source: patent US20110294144
# Tested on: recombinant tau protein (Wako Pure Chemical Industries, Ltd.)
substance,measurement,value
recombinant PRKX protein (Invitrogen),"S214 phosphorylation of tau, in vitro kinase reaction of the two recombinant proteins, Western blot",the amount of S214 phosphorylation was enhanced by the addition of ATP as compared to the control without addition of ATP
